Reference: patent US20260250396A1 (TRUEBINDING, published 2026)

Target: T1, human Galectin-3 (human, UniProt P17931 1-250, limits assumed)
T1 construct: also called Gal-3; Gal3
Assay: in vitro affinity; method and format not stated

T1 sequence (P17931 whole entry): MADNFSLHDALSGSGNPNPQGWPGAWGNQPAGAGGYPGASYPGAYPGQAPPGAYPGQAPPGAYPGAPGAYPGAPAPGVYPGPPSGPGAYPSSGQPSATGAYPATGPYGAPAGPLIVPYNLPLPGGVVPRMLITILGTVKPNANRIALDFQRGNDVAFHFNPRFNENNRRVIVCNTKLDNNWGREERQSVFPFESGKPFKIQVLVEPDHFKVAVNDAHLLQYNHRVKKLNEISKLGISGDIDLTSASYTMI

Kd: 8.4 nM
B1: TB006 (antibody, human IgG4 S228P, kappa, V domains shown)
VH: QVQLVQSGAEVKKPGASVKVSCKASGYSFTNYYMHWVRQAPGQRLEWMGWIYPGSGNTNYNEKFQGRVTITADTSASTAYMELSSLRSEDTAVYYCSTAPGGFDVWGQGTTVTVSS
VL: DIVMTQTPLSLSVTPGQPASISCKSSKSLLHSDGITYLYWYLQKPGQSPQLLIYRMSNLASGVPDRFSGSGSGTDFTLKISRVEAEDVGVYYCAQMLEFPLTFGQGTKLEIKR
notes: also called anti-Gal3 antibody; humanized IgG4 (S228P) type monoclonal antibody
